Data as given in patent publication US20200283528A1 (NUMAB THERAPEUTICS, published 2020).

Columns and labels:
[1] = biological target: T1, human PDL1 expressed on cells (human, UniProt Q9NZQ7 19-290); assay: cell-based or functional assay
[2] = biological target: T2, human PDL1 (recombinant, soluble) (human, UniProt Q9NZQ7 19-238); assay: PDL1/PD-1 competition ELISA; PD-1 coated, biotinylated PDL1 1 ng/ml
T2 construct: also called hPDL1; hPD-L1
Experimental: (§1) ELISA microplates coated overnight at 4° C. with 4 μg/ml human PD-1 were washed three times with 450 μl wash buffer per well. Plates were blocked for 1 hour at room temperature by adding 300 μl of PBS with 1% BSA and 0.2% tween (dilution buffer) to each well. […] The mixtures were pre-incubated for 1 hour at room temperature under gentle agitation on a rotating mixer (21 rpm) and added to the microplates after 3 wash cycles with 450 μl wash buffer per well. Plates were incubated for 1.5 hours at room temperature under gentle agitation, then 10 ng/ml streptavidin-polyHRP40 was added to each microplate well after three washes with 450 μl of wash buffer per well. After 1 h incubation at RT, plates were washed three times with 450 μl wash buffer and TMB substrate solution was added. The enzymatic reaction was stopped after 6 minutes by addition of 1 M HCl and absorbance was measured at 450 nm using 690 nm as a reference wavelength. For calculation of IC₅₀ values, a four-parameter logistic (4PL) curve fit was performed in Graph Pad Prism using reference subtracted values.

[3] = biological target: T2, human PDL1 (recombinant, soluble); assay: PDL1/B7-1 competition ELISA; B7-1 coated, biotinylated PDL1 40 ng/ml
Experimental: as §1, with “B7-1” for “PD-1”

[4] = biological target: T1, human PDL1 expressed on cells; assay: cell-based or functional assay; remark: listed apart in the source
[5] = biological target: cynomolgus PDL1, recombinant (Sino Biological) / PDL1-Fc chimeric protein (cynomolgus (Macaca fascicularis), UniProt G7PSE7 19-238); assay: SPR Biacore T200; cynomolgus PDL1 (Sino Biological) captured; scFv as analyte
cynomolgus PDL1, recombinant (Sino Biological) / PDL1-Fc chimeric protein, sequence (G7PSE7 entry or part of it mutant limits assumed): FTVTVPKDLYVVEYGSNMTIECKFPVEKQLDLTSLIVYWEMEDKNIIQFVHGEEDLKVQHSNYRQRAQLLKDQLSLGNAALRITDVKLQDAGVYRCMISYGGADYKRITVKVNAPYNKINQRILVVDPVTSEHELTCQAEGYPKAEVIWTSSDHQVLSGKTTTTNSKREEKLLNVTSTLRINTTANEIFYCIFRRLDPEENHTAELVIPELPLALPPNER
Experimental: After each analyte injection cycle, the CM5 sensor chip was regenerated and new antigen was captured. The scFvs were injected as analyte using a dose response multicycle kinetic assay with concentrations of the analyte ranging from 0.12 to 30 nM diluted in running buffer for 5 min and dissociation of the protein was allowed to proceed for 12 min. Obtained sensorgrams were fitted using the 1:1 binding model.

B1: PRO1060 (33-03-G02 IgG1 HC with 38_02_A04 sc01 scFv, PDL1/CD137 (scFv) silent Morrison) (bispecific antibody)
light: DIQMTQSPSSLSASVGDRVTITCQASQSINDYLAWYQQKPGKAPKLLIYKASTLASGVPSRFSGSGSGTDFTLTISSLQPEDFATYYCQQGYIITDIDNVFGTGTKVTVLGTVAAPSVFIFPPSDEQLKSGTASVVCLLNNFYPREAKVQWKVDNALQSGNSQESVTEQDSKDSTYSLSSTLTLSKADYEKHKVYACEVTHQGLSSPVTKSFNRGEC
heavy: QVQLQESGPGLVKPSETLSLTCKVSGFSFSSGYDMCWIRQPPGKGLEWIGCVVAGSVDITYYASWAKGRVTISVDSSKNQFSLKLSSVTAADTAVYYCARKDAYSDAFNLWGQGTLVTVSSASTKGPSVFPLAPSSKSTSGGTAALGCLVKDYFPEPVTVSWNSGALTSGVHTFPAVLQSSGLYSLSSVVTVPSSSLGTQTYICNVNHKPSNTKVDKRVEPKSCDKTHTCPPCPAPEAAGGPSVFLFPPKPKDTLMISRTPEVTCVVVDVSHEDPEVKFNWYVDGVEVHNAKTKPREEQYNSTYRVVSVLTVLHQDWLNGKEYKCKVSNKALGAPIEKTISKAKGQPREPQVYTLPPSREEMTKNQVSLTCLVKGFYPSDIAVEWESNGQPENNYKTTPPVLDSDGSFFLYSKLTVDKSRWQQGNVFSCSVMHEALHNHYTQKSLSLSPGKGGGGSGGGGSIQMTQSPSSLSASVGDRVTITCQASQSINNVLAWYQQKPGKAPKLLIYRASTLASGVPSRFSGSGSGTDFTLTISSLQPEDFATYYCQSSYGNYGDFGTGTKVTVLGGGGGSGGGGSGGGGSGGGGSQVQLQESGPGLVKPSETLSLTCKVSGFSFSNSYWICWIRQPPGKGLEWIGCTFVGSSDSTYYANWAKGRVTISVDSSKNQFSLKLSSVTAADTAVYYCARHPSDAVYGYANNLWGQGTLVTVSS
notes: also called Morrison-H
NF-AT potency assay IC50 [1]: 0.133 µg/mL | IC50 [2]: 0.00567 µg/mL | IC50 [3]: 0.0174 µg/mL

B2: PRO1062 (33-03-G02 sc01 IgG1 HC with 38_27_C05 sc01 scFv, PDL1/CD137 (scFv) silent Morrison) (bispecific antibody)
light: B1 light
heavy: B1 heavy
notes: also called Morrison-H
IC50 [2]: 0.0113 µg/mL | IC50 [3]: 0.0195 µg/mL

B3: PRO1059 (33-03-G02 IgG1 LC with 38_02_A04 sc01 scFv, PDL1/CD137 (scFv) silent Morrison) (bispecific antibody)
light: DIQMTQSPSSLSASVGDRVTITCQASQSINDYLAWYQQKPGKAPKLLIYKASTLASGVPSRFSGSGSGTDFTLTISSLQPEDFATYYCQQGYIITDIDNVFGTGTKVTVLGTVAAPSVFIFPPSDEQLKSGTASVVCLLNNFYPREAKVQWKVDNALQSGNSQESVTEQDSKDSTYSLSSTLTLSKADYEKHKVYACEVTHQGLSSPVTKSFNRGECGGGGSGGGGSIQMTQSPSSLSASVGDRVTITCQASQSINNVLAWYQQKPGKAPKLLIYRASTLASGVPSRFSGSGSGTDFTLTISSLQPEDFATYYCQSSYGNYGDFGTGTKVTVLGGGGGSGGGGSGGGGSGGGGSQVQLQESGPGLVKPSETLSLTCKVSGFSFSNSYWICWIRQPPGKGLEWIGCTFVGSSDSTYYANWAKGRVTISVDSSKNQFSLKLSSVTAADTAVYYCARHPSDAVYGYANNLWGQGTLVTVSS
heavy: QVQLQESGPGLVKPSETLSLTCKVSGFSFSSGYDMCWIRQPPGKGLEWIGCVVAGSVDITYYASWAKGRVTISVDSSKNQFSLKLSSVTAADTAVYYCARKDAYSDAFNLWGQGTLVTVSSASTKGPSVFPLAPSSKSTSGGTAALGCLVKDYFPEPVTVSWNSGALTSGVHTFPAVLQSSGLYSLSSVVTVPSSSLGTQTYICNVNHKPSNTKVDKRVEPKSCDKTHTCPPCPAPEAAGGPSVFLFPPKPKDTLMISRTPEVTCVVVDVSHEDPEVKFNWYVDGVEVHNAKTKPREEQYNSTYRVVSVLTVLHQDWLNGKEYKCKVSNKALGAPIEKTISKAKGQPREPQVYTLPPSREEMTKNQVSLTCLVKGFYPSDIAVEWESNGQPENNYKTTPPVLDSDGSFFLYSKLTVDKSRWQQGNVFSCSVMHEALHNHYTQKSLSLSPGK
notes: also called Morrison-L
NF-AT potency assay IC50 [1]: 0.0938 µg/mL | IC50 [2]: 0.00454 µg/mL | IC50 [3]: 0.029 µg/mL

B4: PRO1347 (37-20-B03-sc09 scFv) (scFv)
chain: DIQMTQSPASLSASVGDRVTITCQASQSIGTYLAWYQQKPGKPPKLLIYRAFILASGVPSRFSGSGSGTDFTLTISSLQPEDFATYYCQSNFYSDSTTIGPNAFGTGTKVTVLGGGGGSGGGGSGGGGSGGGGSEVQLVESGGGLVQPGGSLRLSCAASGFSFNSDYWIYWVRQAPGKGLEWIACIYGGSSGNTQYASWAQGRFTISRDNSKNTVYLQMNSLRAEDTAVYFCARGYVDYGGATDLWGQGTLVTVSS
reporter gene assay IC50 [4]: 0.00753 µg/mL | reporter gene assay Maximum Inhibition (%) [4]: 88.9% | KD, cyno/KD, human [5]: 1.41 | Kd [5]: 0.0127 nM | koff [5]: 8.77e-05 s⁻¹ | kon [5]: 6.88e+06 M⁻¹ s⁻¹

B5: PRO951 (38-27-C05 sc02 scDb-i/33-03-G02 sc01 scDb-o) (bispecific antibody)
chain: DIQMTQSPSSLSASVGDRVTITCQASQSINDYLAWYQQKPGKAPKLLIYKASTLASGVPSRFSGSGSGTDFTLTISSLQPEDFATYYCQQGYIITDIDNVFGTGTKVTVLGGGGGSEVQLVESGGGLVQPGGSLRLSCAASGFSFNNDYDMCWVRQAPGKGLEWIGCIDTGDGSTYYASWAKGRFTISRDNSKNTVYLQMNSLRAEDTAVYYCAREAASSSGYGMGYFDLWGQGTLVTVSSGGGGSGGGGSGGGGSGGGGSIQMTQSPSSLSASVGDRVTITCQSSQSVYDNNWLAWYQQKPGKAPKLLIYRASNLASGVPSRFSGSGSGTDFTLTISSLQPEDFATYYCQGTYLSSNWYWAFGTGTKVTVLGGGGGSQVQLQESGPGLVKPSETLSLTCKVSGFSFSSGYDMCWIRQPPGKGLEWIGCVVAGSVDITYYASWAKGRVTISVDSSKNQFSLKLSSVTAADTAVYYCARKDAYSDAFNLWGQGTLVTVSS
NF-AT potency assay IC50 [1]: 0.0885 µg/mL | IC50 [2]: 0.0095 µg/mL | IC50 [3]: 0.0093 µg/mL

B6: PRO963 (= PRO1051)(38_02_A04 sc01 scDb-i/33-03-G02 sc01 scDb-o/19-01-H04-sc03 scFv) (other)
chain: DIQMTQSPSSLSASVGDRVTITCQASQSINDYLAWYQQKPGKAPKLLIYKASTLASGVPSRFSGSGSGTDFTLTISSLQPEDFATYYCQQGYIITDIDNVFGTGTKVTVLGGGGGSQVQLQESGPGLVKPSETLSLTCKVSGFSFSNSYWICWIRQPPGKGLEWIGCTFVGSSDSTYYANWAKGRVTISVDSSKNQFSLKLSSVTAADTAVYYCARHPSDAVYGYANNLWGQGTLVTVSSGGGGSGGGGSGGGGSGGGGSIQMTQSPSSLSASVGDRVTITCQASQSINNVLAWYQQKPGKAPKLLIYRASTLASGVPSRFSGSGSGTDFTLTISSLQPEDFATYYCQSSYGNYGDFGTGTKVTVLGGGGGSQVQLQESGPGLVKPSETLSLTCKVSGFSFSSGYDMCWIRQPPGKGLEWIGCVVAGSVDITYYASWAKGRVTISVDSSKNQFSLKLSSVTAADTAVYYCARKDAYSDAFNLWGQGTLVTVSSGGGGSGGGGSIQMTQSPSSLSASVGDRVTITCQSSESVYSNNQLSWYQQKPGQPPKLLIYDASDLASGVPSRFSGSGSGTDFTLTISSLQPEDFATYYCAGGFSSSSDTAFGGGTKLTVLGGGGGSGGGGSGGGGSGGGGSEVQLVESGGGLVQPGGSLRLSCAASGFSLSSNAMGWVRQAPGKGLEYIGIISVGGFTYYASWAKGRFTISRDNSKNTVYLQMNSLRAEDTATYFCARDRHGGDSSGAFYLWGQGTLVTVSS
NF-AT potency assay IC50 (with HSA) [1]: 0.275 µg/mL

B7: PRO1013 (37-20-B03-sc02 scFv) (scFv)
scFv: DIQMTQSPSSLSASVGDRVTITCQASQSIGTYLAWYQQKPGKAPKLLIYRAFILASGVPSRFSGSGSGTDFTLTISSLQPEDFATYYCQSNFYSDSTTIGPNAFGTGTKVTVLGGGGGSGGGGSGGGGSGGGGSQVQLVQSGAEVKKPGASVKVSCKASGFSFNSDYWIYWVRQAPGQGLEWMGSIYGGSSGNTQYASWAQGRVTMTRDTSISTAYMELSSLRSEDTAVYYCARGYVDYGGATDLWGQGTLVTVSS
notes: also called 37-20-B03 CDR, VH1
NF-AT potency assay IC50 [1]: 0.0213 µg/mL | IC50 [2]: 0.00057 µg/mL | IC50 [3]: 0.00405 µg/mL
